One block for each binder: values may come before it.
How the values were obtained:
[1] = target: T1, serpin family B member 6, transcript variant 2 (human, UniProt P35237 1-376)
T1 construct: HuProt array protein, full-length recombinant from yeast; also called SERPINB6
T1 sequence: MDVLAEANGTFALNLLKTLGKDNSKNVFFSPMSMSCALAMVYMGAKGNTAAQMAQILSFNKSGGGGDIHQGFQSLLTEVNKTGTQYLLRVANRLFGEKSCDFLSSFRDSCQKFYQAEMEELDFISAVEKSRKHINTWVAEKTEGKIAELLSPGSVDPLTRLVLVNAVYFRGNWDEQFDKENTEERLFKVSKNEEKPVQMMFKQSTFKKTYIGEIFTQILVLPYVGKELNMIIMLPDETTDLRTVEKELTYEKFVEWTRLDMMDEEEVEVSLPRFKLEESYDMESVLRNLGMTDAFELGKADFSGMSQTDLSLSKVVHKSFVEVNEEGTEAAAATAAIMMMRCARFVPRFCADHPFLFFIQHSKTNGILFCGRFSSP

[2] = target: T2, Dpy-30 histone methyltransferase complex regulatory subunit (human, UniProt Q9C005 1-99)
T2 construct: HuProt array protein, full-length recombinant from yeast
T2 sequence (Q9C005 whole entry, one chain of several): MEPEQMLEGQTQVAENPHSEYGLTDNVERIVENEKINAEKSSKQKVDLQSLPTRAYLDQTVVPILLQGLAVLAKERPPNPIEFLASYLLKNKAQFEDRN

[3] = target: T3, rhophilin associated tail protein 1 like, transcript variant 2 (human, UniProt Q96C74 1-230)
T3 construct: HuProt array protein, full-length recombinant from yeast; also called ROPN1L
T3 sequence: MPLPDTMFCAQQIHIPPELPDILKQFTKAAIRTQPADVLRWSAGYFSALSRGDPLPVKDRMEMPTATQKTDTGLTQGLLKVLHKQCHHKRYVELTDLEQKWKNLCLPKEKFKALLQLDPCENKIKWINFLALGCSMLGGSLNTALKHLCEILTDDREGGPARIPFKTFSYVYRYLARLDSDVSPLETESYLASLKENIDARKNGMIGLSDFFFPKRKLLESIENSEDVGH

[4] = target: T4, Jupiter microtubule associated homolog 2 (human, UniProt Q9H910 1-190)
T4 construct: HuProt array protein, full-length recombinant from yeast; also called HN1L
T4 sequence: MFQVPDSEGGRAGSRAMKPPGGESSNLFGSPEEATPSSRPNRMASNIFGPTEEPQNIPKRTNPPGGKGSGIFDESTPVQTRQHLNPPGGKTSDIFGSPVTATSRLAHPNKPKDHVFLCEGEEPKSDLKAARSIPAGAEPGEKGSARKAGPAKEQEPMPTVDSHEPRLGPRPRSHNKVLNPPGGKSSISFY

BTB domain containing 8 = target: T5, BTB domain containing 8 (human, UniProt Q5XKL5 1-374, limits assumed)
T5 construct: HuProt array protein, full-length recombinant from yeast; also called BTBD8
T5 sequence (Q5XKL5 other isoform, or with tags, fused parts or gaps limits assumed): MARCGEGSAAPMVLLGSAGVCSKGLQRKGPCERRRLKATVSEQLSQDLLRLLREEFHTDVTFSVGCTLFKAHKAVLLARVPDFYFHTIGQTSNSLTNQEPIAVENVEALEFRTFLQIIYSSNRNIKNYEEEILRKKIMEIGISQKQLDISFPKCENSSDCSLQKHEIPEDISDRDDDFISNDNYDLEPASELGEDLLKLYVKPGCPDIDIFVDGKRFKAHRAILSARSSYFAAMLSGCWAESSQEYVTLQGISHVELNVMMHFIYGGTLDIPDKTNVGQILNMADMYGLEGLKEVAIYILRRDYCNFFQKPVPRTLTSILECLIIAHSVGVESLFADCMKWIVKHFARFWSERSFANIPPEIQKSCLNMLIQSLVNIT

[5] = target: T6, HEAT repeat containing 3, transcript variant 1 (human, UniProt Q7Z4Q2 1-680)
T6 construct: also called HEATR3
T6 sequence: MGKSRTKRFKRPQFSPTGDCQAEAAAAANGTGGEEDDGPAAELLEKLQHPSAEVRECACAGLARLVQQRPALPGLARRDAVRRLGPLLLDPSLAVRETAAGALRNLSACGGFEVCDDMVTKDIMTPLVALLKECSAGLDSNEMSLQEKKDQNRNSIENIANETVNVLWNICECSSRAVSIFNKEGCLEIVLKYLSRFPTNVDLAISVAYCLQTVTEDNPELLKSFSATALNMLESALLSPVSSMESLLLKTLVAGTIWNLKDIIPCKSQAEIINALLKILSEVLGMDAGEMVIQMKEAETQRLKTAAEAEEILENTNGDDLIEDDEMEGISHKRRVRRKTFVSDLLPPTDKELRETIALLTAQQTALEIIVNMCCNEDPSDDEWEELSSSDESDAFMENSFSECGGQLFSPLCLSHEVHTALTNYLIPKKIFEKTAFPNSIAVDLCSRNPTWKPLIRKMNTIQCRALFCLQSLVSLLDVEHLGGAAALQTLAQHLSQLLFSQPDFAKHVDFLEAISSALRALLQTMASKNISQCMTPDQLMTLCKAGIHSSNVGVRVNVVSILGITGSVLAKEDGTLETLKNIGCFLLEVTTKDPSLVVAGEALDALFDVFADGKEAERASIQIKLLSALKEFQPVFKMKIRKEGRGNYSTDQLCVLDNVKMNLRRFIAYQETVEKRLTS

Deoxyhypusine synthase = target: T7, Deoxyhypusine synthase (human, UniProt P49366 1-369)
T7 construct: also called DHPS
T7 sequence: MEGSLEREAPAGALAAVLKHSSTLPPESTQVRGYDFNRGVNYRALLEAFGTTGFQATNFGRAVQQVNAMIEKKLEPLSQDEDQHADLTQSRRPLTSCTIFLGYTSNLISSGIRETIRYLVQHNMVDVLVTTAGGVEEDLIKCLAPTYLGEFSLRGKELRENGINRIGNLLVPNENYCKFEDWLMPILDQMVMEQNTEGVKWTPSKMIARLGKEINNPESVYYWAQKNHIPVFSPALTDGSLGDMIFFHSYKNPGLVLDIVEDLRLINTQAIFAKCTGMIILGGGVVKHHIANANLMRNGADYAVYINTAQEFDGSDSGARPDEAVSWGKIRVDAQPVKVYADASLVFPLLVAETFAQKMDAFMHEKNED

[6] = target: T8, microtubule associated protein RP/EB family member 2, transcript variant 1 (human, UniProt Q15555 1-327)
T8 construct: also called MAPRE2
T8 sequence (Q15555 whole entry, change not shown): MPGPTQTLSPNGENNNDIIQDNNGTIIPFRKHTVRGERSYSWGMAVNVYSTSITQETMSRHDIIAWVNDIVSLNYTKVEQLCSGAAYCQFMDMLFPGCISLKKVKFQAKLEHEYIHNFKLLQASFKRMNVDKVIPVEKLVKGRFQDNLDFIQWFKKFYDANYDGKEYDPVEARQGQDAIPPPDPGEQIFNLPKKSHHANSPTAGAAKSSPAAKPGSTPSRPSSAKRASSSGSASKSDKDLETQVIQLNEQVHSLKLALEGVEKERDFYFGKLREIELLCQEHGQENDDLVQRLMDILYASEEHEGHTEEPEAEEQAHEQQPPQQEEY

[7] = target: T9, interleukin 27 receptor subunit alpha (human, UniProt Q6UWB1 33-636, limits assumed)
T9 construct: also called IL27RA
T9 sequence: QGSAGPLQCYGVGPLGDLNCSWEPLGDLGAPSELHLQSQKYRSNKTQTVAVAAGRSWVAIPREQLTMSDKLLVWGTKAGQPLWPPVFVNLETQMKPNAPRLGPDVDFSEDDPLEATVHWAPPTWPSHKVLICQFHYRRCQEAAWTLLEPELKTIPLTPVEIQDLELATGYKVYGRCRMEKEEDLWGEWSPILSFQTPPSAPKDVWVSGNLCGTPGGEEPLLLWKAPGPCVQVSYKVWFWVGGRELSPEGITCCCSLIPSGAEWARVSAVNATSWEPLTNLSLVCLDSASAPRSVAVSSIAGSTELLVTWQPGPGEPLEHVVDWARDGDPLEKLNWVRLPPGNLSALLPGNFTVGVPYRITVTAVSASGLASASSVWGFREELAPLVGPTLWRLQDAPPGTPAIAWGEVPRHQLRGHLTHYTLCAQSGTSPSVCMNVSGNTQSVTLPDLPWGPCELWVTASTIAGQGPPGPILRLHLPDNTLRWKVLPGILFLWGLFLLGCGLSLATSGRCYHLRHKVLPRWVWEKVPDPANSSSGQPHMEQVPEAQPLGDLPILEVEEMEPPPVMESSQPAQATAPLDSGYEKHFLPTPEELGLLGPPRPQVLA

[8] = target: T10, methionyl-tRNA synthetase 1 (human, UniProt P56192 1-900)
T10 construct: HuProt array protein, full-length recombinant from yeast; also called MARS
T10 sequence: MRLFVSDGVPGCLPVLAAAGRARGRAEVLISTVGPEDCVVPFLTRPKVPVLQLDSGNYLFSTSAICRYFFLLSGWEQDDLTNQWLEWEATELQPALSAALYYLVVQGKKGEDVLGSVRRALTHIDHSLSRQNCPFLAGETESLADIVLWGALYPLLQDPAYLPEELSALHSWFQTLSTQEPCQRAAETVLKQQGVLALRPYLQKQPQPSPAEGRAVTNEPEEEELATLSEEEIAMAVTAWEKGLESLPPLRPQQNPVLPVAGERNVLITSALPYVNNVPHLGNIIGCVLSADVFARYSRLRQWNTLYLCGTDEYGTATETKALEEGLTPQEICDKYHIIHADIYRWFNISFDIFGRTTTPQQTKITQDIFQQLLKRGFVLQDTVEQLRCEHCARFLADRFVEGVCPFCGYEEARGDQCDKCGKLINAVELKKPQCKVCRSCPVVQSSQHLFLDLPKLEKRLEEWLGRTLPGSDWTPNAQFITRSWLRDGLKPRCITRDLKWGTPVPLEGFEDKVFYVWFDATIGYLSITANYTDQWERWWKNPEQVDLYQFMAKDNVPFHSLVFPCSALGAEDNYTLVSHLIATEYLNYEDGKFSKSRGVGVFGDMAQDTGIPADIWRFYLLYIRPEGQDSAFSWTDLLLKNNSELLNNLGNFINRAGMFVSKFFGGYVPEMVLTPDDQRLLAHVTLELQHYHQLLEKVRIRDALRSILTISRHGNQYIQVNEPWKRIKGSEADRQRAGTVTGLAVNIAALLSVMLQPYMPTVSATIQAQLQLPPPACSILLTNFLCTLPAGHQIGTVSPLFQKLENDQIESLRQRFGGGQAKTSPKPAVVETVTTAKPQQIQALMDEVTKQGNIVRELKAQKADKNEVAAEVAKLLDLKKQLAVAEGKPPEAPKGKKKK

B1: TMEL1040 (antibody, V domains shown)
VH: EVQLVQSGAEVKKPGESLKISCKGSGYSFTTYWIAWVRQMPGKGLEWMGIIYPADSDTRYSPSFQGQVTMSADQSINTAYLQWSSLKASDTAMYYCARRGREFDYWGQGTLLTVSS
VL: QSALTQPASVSGSPGQSITISCTGTSSDVGSYNLVSWYQQHPGKAPKLMIYEGSKRPSGVSNRFSGSKSGNTASLTISGLQAEDEADYYCCSYAGSSTPWVFGGGTKLTVL
notes: detected with anti-human IgG Fc
binding result [1]: binds

B2: TMEL1041 (antibody, V domains shown)
VH: EVQLLESGGGLVQPGGSLRLSCAASGFTFRIYAMSWVRQAPGKGLEWVSAISYSGNTTYYADSVKGRFTISRDNSKNTLYLQINNLRAEDTAIYYCAIQEKRELQLRRELDNYWGQGTLVTVSS
VL: PYELTQPPSVSLSPGQTARITCSGDALPKKYAYWYQQKSGQAPVLVIYEDSKRPSGIPERFSGSSSGTTATLTISGAQVDDEGDYYCYSPDSSGNVWVFGGGTKLTVLG
notes: as for B1
binding result [2]: binds
binding result [3]: binds

B3: TMES1002 (antibody, V domains shown)
VH: QVQVVESGGGLVKPGGSLRLSCAVSGLDFRDYYVNWIRQAPGKGLEWLSYITSPGGHTSYSDSVKGRFTISRDNAKNSVYLQMDSLTVEDTAVYFCAIKEGYGLSDWGQGTLVTVSS
VL: EIVLTQSPVTLSLSPGERATLSCRASQSVSSSYIAWYQQKPGQAPRLLIYGASTRATGIPDRFSGSGSGTDFTLTISRLEPEDCAVFYCQQYGSSHYTFGQGTKLEIKR
notes: as for B1
binding result [4]: binds
binding result (BTB domain containing 8): binds

B4: TOVA1004 (antibody, V domains shown)
VH: EVQLVESGGGLVKPGGSLRLSCAASGFTFSSYSMNWVRQAPGKGLEWVSSISSSSSYIYYADSVKGRFTISRDNAKNSLYLQMNSLRAEDTAVYYCARDRGVVVVAATPYYYGMDVWGQGTTVTVSS
VL: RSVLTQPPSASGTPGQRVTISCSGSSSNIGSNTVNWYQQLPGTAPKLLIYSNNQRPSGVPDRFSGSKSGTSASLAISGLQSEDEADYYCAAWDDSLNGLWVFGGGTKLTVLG
binding result [5]: binds

B5: TOVA1003 (antibody)
VH: GEQLLESGGGLVQPGGSLRLSCAASGFTFSHYAMTWVRQAPGKGLEWVSGVSGSGFTTYYADSVKGRFTISRDNAQNTLYLHMNSLRAEDTAIYYCVKDLEVSIGHNFDFWGQGTLVTVSSASTKGPSVFPLAPSSKSTSGGTAALGCLVKDYFPEPVTVSWNSGALTSGVHTFPAVLQSSGLYSLSSVVTVPSSSLGTQTYICNVNHKPSNTKVDKRV
VL: EVQMTQSPSSLSASVGDRVTITCRASQHIAGRLNWYQQKPGKAPKLLIHSASSVQREVPSRFGGSGFGTDFTLTIYSLQAEDFATYFCQQSYYTPPTFAGGTRVDLKRTVAAPSVFIFPPSDEQLKSGTASVVCLLNNFYPREAKVQWKVDNALQSGNSQESVTEQDSKDSTYSLSSTLTLSKADYEKHKVYACEVTHQGLSSPVTKSFNRGEC
binding result (Deoxyhypusine synthase): binds

Results, then the binder that gave them:

binding result [6]: binds
B6: TMES1004 (antibody, V domains shown)
VH: QVQLVQSGAEVKKPGASVKISCKASGYTFTSHAIHWVRQAPGQTFEWLGWINPVNGVTKYSQTFQDRVTIVRDKSATTTYMDLSGLTFEDTAMYYCARVLDFYGSSVLDYWGQGTLVTVSS
VL: QSALTQPASVSGSPGQSITISCTGTSSDIGTYNLVSWYQQRPGKAPKLIIYDVIKRPSGISDRFSGSKSDNMASLTISGLQAEDEAHYYCCSYRSSTAPVVFGGGTKVTVL

binding result [7]: binds
B7: TOVA1002 (antibody, V domains shown)
VH: QVQLVESGGGVVQPGRSLRLSCAASGFTFSNFAMHWVRQAPGKGLEWVVVISSDGSNKNYADSVKGRFTISRDNSKNTLYLQMNSLRAEDTAVYYCARDLGVGSTTYWGQGTLVTVSS
VL: SYVLTQPPSVSVAPGQTARITCGGNNIGSKSVHWYQQKPGQAPVLVVYDDSDRPSGIPERFSGSNSGNTATLTISRVEAGDEADYYCQVWDGYSDPLVFGGGTKLTVLG

binding result [8]: binds
B8: TMEL1038 (antibody, V domains shown)
VH: QVQLVQSGAEVKKPGASVKVSCQASGYTFTGYYIHWVRQAPGQGLEWMGWINPNSGGTNYAQKFQGRVTMTRDTSISTAHMELGRLRSDDTAVYYCATPPSRYGGNYYADYWGQGTLVTVSS
VL: ASALTQPASVSGSPGQSITISCTGTSSDVGGYNYVSWYQQHPGKAPQLMIFDVSNRPSGVSNRFSGSKSGDTASLTISGLQAEDEADYYCSSYTSSSTWVFGGGTKLTVLG
notes: as for B1

— patent US20220204643A1 (published 2022)
